The text below walks through data of patent US20100047255A1 (Harvard, published 2010).

Positions count from the first letter of the chain named. Numbers in names are those of the source.

The target of assay [1] is Nedd8 (endogenous protein of 293T cells) (human, UniProt Q15843 1-76). In words: anti-Nedd8 immunoblot of anti-HA immune complexes from 293T cells, non-reducing SDS-PAGE. (In general: Immunoblotting shows a protein as a band on a membrane.)
In assay [2] the target is ubiquitin (endogenous protein of 293T cells) (human, UniProt P0CG48 1-76). Nature of the assay: LC/MS/MS (LTQ-Orbitrap) of Flag-HA-Uba6˜Ub purified from mammalian cells.

Chain of Nedd8 (endogenous protein of 293T cells) (Q15843 1-76 limits assumed): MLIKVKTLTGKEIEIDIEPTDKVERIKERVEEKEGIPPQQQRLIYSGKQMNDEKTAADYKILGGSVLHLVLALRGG

B1: Flag-HA-Uba6^C625S (enzyme)
chain: MEGSEPVAAHQGEKASCSSWGTGSTNKNLPIMSTASVEIDDALYSRQRYVLGDTAMQKMAKSHVFLSGMGGLGLEIAKNLVLAGIKAVTIHDTEKCQAWDLGTNFFLSEDDVVNKRNRAEAVLKHIAELNPYVHVTSSSAPFNETTDLSFLDKYQCVVLTEMKLPLQKKINDFCRSQCPPIKFISADVHGIWSRLFCDFGDEFEVLDTTGEEPKEIFISNITQTNPGIVTCLENHPHKLETGQFLTFREINGMTGLNGSIQQITVISPFSFSIGDTTELEPYLHGGIAVQVKTPKTVFFESLERQLKHPKCLIVDFSNPEAPLEIHTAMLALDQFQEKYSRKPNVGCQQDSEELLKLATSISETLEEKPDVNADIVHWLSWTAQGFLSPLAAAVGGVASQEVLKAVTGKFSPLCQWLYLEAADIVESLGKPECEEFLPRGDRYDALRACIGDTLCQKLQNLNIFLVGCGAIGCEMLKNFALLGVGTSKEKGMITVTDPDLIEKSNLNRQFLFRPHHIQKPKSYTAADATLKINSQIKIDAHLNKVCPTTETIYNDEFYTKQDVIITALDNVEARRYVDSRCLANLRPLLDSGTMGTKGHTEVIVPHLTESYNSHRDPPEEEIPFSTLKSFPAAIEHTIQWARDKFESSFSHKPSLFNKFWQTYSSAEEVLQKIQSGHSLEGCFQVIKLLSRRPRNWSQCVELARLKFEKYFNHKALQLLHCFPLDIRLKDGSLFWQSPKRPPSPIKFDLNEPLHLSFLQNAAKLYATVYCIPFAEEDLSADALLNILSEVKIQEFKPSNKVVQTDETARKPDHVPISSEDERNAIFQLEKAILSNEATKSDLQMAVLSFEKDDDHNGHIDFITAASNPRAKMYSIEPADRFKTKRIAGKIIPAIATTTATVSGLVALEMIKVTGGYPFEAYKNCFLNLAIPIVVFTETTEVRKTKIRNGISFTIWDRWTVHGKEDFTLLDFINAVKEKYGIEPTMVVQGVKMLYVPVMPGHAKRLKLTMHKLVKPTTEKKYVDLTVSFAPDIDGDEDLPGPPVRYYFSHDTD
notes: Catalytic cysteine changed to serine; also called C625S mutant; Flag-HA-Ub6^C625S; not shown: N-terminal Flag-HA tag
Consider B1, for which the binding result in assay [1] was “no binding”.

B2: Flag-HA-Uba6 (enzyme)
chain: B1 chain with S625C
notes: also called HA-Flag-Uba6; wild-type Uba6 with N-terminal Flag-HA tag; not shown: N-terminal Flag-HA tag
Regarding B2, the binding result in assay [2] was “binds”.
